Paper PMC8633581

Legend:
[1] = target: Gαq/i (chimera between Gαq and Gαi), as used in fluorescence polarisation; assay: fluorescence polarisation; direct binding of HTH peptide and Gαq/i; conditions not given
[2] = target: 1EBB-graft, displayed on yeast (Geobacillus stearothermophilus); assay: flow cytometry on cells; yeast surface titration: yeast displaying the construct, biotinylated Gαq/i 1 nM to 7.5 μM with AlF4-, 1 h on ice, streptavidin-phycoerythrin; 10 mM HEPES pH 8.0, 150 mM NaCl, 10 mM MgCl2, 30 μM AlCl3, 10 mM NaF, 0.1% BSA; one-step isotherm, apparent KD
[3] = target: 171L-graft, displayed on yeast (phage T4) (UniProt P00720); assay: as above
[4] = target: HTH peptide of PLC-β3 with the mutations I860A and V866W, expressed on the surface of yeast; assay: as above

| Kd [1] [nM] | fold increase of affinity against the original HTH peptide [1] [fold] | Substance | Kd [2] [nM] | Kd [3] [nM] | Kd [4] [nM] |
| --- | --- | --- | --- | --- | --- |
| 290 | > 14 | soluble HTH peptide of PLC-β3 with the V866W mutation |  |  |  |
|  |  | biotinylated Gαq/i (chimera between Gαq and Gαi, with C-terminal avitag) | 2000 | 1700 | 400 |
| 400 |  | TAMRA-labeled HTH peptide (I860A) derived from PLC-β3 |  |  |  |
